Results as given in patent publication US20060142195.

Target: T1, fibrin, P02671
T1 chain 1: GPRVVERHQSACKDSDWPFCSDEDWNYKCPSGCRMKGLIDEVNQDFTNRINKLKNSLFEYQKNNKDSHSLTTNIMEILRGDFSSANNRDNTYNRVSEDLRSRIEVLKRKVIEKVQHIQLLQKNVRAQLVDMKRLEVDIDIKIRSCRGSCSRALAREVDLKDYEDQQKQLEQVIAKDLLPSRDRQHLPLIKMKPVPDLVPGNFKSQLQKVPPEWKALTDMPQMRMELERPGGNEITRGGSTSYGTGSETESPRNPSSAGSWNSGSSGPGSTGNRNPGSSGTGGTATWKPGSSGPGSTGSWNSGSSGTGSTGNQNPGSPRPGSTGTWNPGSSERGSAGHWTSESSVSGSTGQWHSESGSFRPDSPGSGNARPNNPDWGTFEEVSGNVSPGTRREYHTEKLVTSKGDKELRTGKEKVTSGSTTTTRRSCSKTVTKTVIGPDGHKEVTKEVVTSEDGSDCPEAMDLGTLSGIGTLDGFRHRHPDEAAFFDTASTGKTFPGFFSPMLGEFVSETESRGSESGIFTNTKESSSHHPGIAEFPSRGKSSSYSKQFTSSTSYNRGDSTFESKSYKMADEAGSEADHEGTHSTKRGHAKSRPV
T1 chain 2: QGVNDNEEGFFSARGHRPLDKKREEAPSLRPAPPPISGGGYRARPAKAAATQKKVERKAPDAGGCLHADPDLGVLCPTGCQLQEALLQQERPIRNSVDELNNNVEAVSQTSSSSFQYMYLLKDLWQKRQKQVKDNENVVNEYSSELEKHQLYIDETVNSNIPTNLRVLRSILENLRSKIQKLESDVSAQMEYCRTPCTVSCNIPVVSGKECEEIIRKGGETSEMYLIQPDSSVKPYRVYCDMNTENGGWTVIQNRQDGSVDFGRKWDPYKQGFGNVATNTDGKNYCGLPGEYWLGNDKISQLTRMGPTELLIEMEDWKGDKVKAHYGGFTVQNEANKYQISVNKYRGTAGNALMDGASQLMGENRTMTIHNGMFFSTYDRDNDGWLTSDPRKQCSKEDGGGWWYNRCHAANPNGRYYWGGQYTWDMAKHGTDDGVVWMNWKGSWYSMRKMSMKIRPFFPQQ
T1 chain 3: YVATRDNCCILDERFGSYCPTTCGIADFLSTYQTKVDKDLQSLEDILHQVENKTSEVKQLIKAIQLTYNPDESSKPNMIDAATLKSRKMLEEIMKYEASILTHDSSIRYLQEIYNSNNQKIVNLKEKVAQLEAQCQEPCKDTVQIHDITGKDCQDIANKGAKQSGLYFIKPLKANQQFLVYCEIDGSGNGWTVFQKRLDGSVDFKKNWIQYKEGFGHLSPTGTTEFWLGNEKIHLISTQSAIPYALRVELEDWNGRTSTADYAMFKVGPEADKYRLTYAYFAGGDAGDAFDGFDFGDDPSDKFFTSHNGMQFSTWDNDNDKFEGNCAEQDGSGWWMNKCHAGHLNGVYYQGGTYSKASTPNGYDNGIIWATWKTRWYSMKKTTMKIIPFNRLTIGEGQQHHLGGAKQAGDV

B1: modified tissue plasminogen activator with an amino acid sequence according to SEQ ID No. 1 (protein)
chain: AYGVACKDEITQMTYRRQESWLRPEVRSKRVEHCQCDRGQARCHTVPVKSCSEPRCFNGGTCQQALYFSDFVCQCPEGFAGKCCEIDTRATCYEDQGISYRGTWSTAESGAECTNWNSSALAQKPYSGRRPDAIRLGLGNHNYCRNPDRDSKPWCYVFKAGKYSSEFCSTPACSSTCGLRQYSQPQFHSTGGLFADIASHPWQAAIFAKHRRSPGERFLCGGILISSCWILSAAHCFQERFPPHHLTVILGRTYRVVPGEEEQKFEVEKYIVHKEFDDDTYDNDIALLQLKSDSSRCAQESSVVRTVCLPPADLQLPDWTECELSGYGKHEALSPFYSERLKEAHVRLYPSSRCTSQHLLNRTVTDNMLCAGDTRSGGPQANLHDACQGDSGGPLVCLNDGRMTLVGIISWGLGCGQKDVPGVYTKVTNYLDWIRDNMRP
**Q.** For B1, which “fibrin specificity (semi quantitative tests)” value is on record?
**A.** Its value is “showed a increased fibrin specificity in comparison to the wild type t-PA”.
